Results: patent US20200063100A1 (CRISPR THERAPEUTICS, published 2020)

Target: T1, biotinylated recombinant human BCMA (ACROS Cat# BC7-H82F0) (human, UniProt Q02223 1-54, biotinylated)
T1 construct: Bought reagent; also called biotinylated Human BCMA Protein, ACRO Biosystems; recombinant BCMA protein
T1 sequence (looked up): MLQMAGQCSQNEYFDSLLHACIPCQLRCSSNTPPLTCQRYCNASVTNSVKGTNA
Assay: flow cytometry, CAR T cells stained with biotinylated antigen

binding result: binds
B1: anti-BCMA CAR, expressed on gene-edited human T cells (other)
chain: QVQLVQSGAELKKPGASVKVSCKASGNTLTNYVIHWVRQAPGQRLEWMGYILPYNDLTKYSQKFQGRVTITRDKSASTAYMELSSLRSEDTAVYYCTRWDWDGFFDPWGQGTTVTVSSGGGGSGGGGSGGGGSEIVMTQSPATLSVSPGERASISCRASQSLVHSNGNTHLHWYQQRPGQAPRLLIYSVSNRFSEVPARFSGSGSGTDFTLTISSVESEDFAVYYCSQTSHIPYTFGGGTKLEIKSAAAFVPVFLPAKPTTTPAPRPPTPAPTIASQPLSLRPEACRPAAGGAVHTRGLDFACDIYIWAPLAGTCGVLLLSLVITLYCNHRNRKRGRKKLLYIFKQPFMRPVQTTQEEDGCSCRFPEEEEGGCELRVKFSRSADAPAYQQGQNQLYNELNLGRREEYDVLDKRRGRDPEMGGKPRRKNPQEGLYNELQKDKMAEAYSEIGMKGERRRGKGHDGLYQGLSTATKDTYDALHMQALPPR
notes: also called anti-BCMA (4-1BB co-stim) CAR
